The values that follow come from article PMC5792643.

Assay [1] concerns the target G-actin (monomeric actin from chicken muscle) (chicken) (UniProt P68139). Kind of assay: ITC.
Assay [2] concerns the target G-actin (monomeric actin) (chicken) (UniProt P68139). Kind of assay: ITC. For orientation: Isothermal titration calorimetry measures the heat released or taken up as one component is titrated into another.

The stoichiometry N is a count of units in the complex or per binding partner. For “Tarp_(726–825) (translocated actin recruiting phosphoprotein, G-actin binding region) (domain or fragment)”, the stoichiometry N in assay [1] worked out at 1.

The Kd is the constant that tells how readily two partners part at equilibrium. As to “Tarp_(726–825) (translocated actin recruiting phosphoprotein, residues 726–825, containing the G-actin binding domain) (from UniProt Q6GX35 726-825) (domain or fragment)”, in assay [2], the Kd was found to be 102 nM and the stoichiometry N worked out at 1.
